{"source": "FireProtDB (doi:10.1021/bi9707180)", "conditions": "Aspergillus oryzae (strain ATCC 42149 / RIB 40), 0 °C, Urea, CD, reversible: yes, whole UniProt chain shown"}
{"protein": "Guanyl-specific ribonuclease T1 wild type, P00651 (protein) MMYSKLLTLTTLLLPTALALPSLVERACDYTCGSNCYSSSDVSTAQAAGYQLHEDGETVGSNSYPHKYNNYEGFDFSVSSPYYEWPILSSGDVYSGGSPGADRVVFNENNQLAGVITHTGASGNNFVECT", "values": [{"measurement": "denaturant m value", "setting": "pH 2.5, glycine 30 mM", "result": 1.58, "unit": "kcal/mol/M"}, {"measurement": "denaturant midpoint (higher = more stable)", "setting": "pH 2.5, glycine 30 mM", "result": 2.78, "unit": "M"}, {"measurement": "denaturant m value", "setting": "pH 7, MOPS 30 mM", "result": 1.28, "unit": "kcal/mol/M"}, {"measurement": "denaturant midpoint (higher = more stable)", "setting": "pH 7, MOPS 30 mM", "result": 4.32, "unit": "M"}]}
